In patent US20230002481A1 (Chugai, published 2023) one finds Kd, koff and kon data, which are given here for 1 molecule.

In the test the target is T1, recombinant cyno C1r2s2 His/Flag tetramer (cynomolgus monkey, limits assumed).
T1 construct: Heterotetramer of two C1r-His and two C1s-Flag chains, co-expressed in FreeStyle293-F cells; also called cyno C1r2s2s
T1 chain 1: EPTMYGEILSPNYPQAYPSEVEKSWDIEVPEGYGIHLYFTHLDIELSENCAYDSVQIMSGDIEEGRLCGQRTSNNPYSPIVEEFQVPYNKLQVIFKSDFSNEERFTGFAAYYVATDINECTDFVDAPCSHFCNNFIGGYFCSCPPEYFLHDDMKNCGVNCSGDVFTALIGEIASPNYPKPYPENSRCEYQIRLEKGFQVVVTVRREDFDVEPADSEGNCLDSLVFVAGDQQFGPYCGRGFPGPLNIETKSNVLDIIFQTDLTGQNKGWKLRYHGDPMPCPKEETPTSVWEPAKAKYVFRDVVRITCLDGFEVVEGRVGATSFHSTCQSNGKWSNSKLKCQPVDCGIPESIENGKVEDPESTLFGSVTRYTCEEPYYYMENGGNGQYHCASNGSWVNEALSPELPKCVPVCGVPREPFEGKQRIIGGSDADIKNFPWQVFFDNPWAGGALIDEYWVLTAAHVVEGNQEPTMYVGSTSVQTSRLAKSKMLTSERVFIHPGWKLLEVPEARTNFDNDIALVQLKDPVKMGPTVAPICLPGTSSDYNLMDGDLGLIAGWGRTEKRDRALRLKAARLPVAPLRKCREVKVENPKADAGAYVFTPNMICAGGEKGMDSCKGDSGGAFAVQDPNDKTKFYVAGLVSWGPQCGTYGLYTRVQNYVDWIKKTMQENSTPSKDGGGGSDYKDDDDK
T1 chain 2: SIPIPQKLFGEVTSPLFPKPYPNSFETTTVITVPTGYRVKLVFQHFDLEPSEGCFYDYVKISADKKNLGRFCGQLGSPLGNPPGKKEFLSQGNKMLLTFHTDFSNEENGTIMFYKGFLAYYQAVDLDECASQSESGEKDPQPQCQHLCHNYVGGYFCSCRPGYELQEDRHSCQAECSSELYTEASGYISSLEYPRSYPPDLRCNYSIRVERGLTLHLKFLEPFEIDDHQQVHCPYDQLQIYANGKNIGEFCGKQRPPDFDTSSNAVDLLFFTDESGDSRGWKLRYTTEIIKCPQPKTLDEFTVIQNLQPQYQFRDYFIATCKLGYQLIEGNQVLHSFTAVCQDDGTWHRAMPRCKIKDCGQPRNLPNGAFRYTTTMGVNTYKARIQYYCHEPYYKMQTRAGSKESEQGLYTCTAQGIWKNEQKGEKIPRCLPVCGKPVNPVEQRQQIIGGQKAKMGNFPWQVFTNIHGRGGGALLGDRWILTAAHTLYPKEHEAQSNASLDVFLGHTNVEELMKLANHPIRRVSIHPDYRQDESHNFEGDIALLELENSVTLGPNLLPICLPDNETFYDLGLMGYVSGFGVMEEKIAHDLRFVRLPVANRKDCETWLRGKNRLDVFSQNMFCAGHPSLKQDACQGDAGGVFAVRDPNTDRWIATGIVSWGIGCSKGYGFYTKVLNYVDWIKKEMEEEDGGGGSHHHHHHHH
Nature of the test: SPR (Biacore), antibody captured on ProA/G, antigen as analyte, 37 C, pH7.4, 1.2 mM CaCl2; pH 7.4. The method, then:
The kinetic parameters of anti-C1s antibodies against recombinant human C1s (as described in PCT/JP2018/042054), human C1r2s2, and cyno C1r2s2 His/Flag (also referred as cyno C1r2s2 in the Table and Figures) were assessed at pH7.4 and pH5.8, at 37 degrees C. using BIACORE (registered trademark) T200 instrument (GE Healthcare) or BIACORE 4000 (GE Healthcare). ProAG (Pierce) was immobilized onto a CM4 sensorchip using amine coupling kit (GE Healthcare) according to the recommended settings by GE Healthcare. Antibodies and analytes were diluted into the respective running buffers, ACES pH7.4 and pH5.8 (20 mM ACES, 150 mM NaCl, 1.2 mM CaCl₂, 1 mg/ml BSA, 1 mg/ml CMD, 0.05% Tween 20, 0.005 w/v % NaN₃). Each antibody was captured onto the sensor surface by ProA/G. Antibody capture levels were typically 100-200 resonance units (RU). Then, recombinant C1s was injected at concentrations of 25 and 50 nM followed by dissociation at pH7.4 and pH5.8. The surface was regenerated using 10 mM Glycine-HCl, pH1.5. Kinetic parameters at neutral pH conditions and acidic conditions were determined by fitting the sensorgrams with 1:1 binding model using BIACORE (registered trademark) T200 Evaluation software, version 2.0 (GE Healthcare) or BIACORE 4000 Evaluation software. The dissociation rate at pH5.8 (after dissociation at pH7.4, indicated as pH5.8* in TABLE 2) was determined by processing and fitting data using Scrubber 2.0 (BioLogic Software) curve fitting software. The association rate (ka), dissociation rate (kd), binding affinity (KD) at pH7.4 and pH5.8 condition, and dissociation rate (kd) at pH5.8* condition of the antibodies are listed in TABLE 2. Some kinetic parameters of COS0098pHv1 in acidic condition were not correctly calculated because of its weak binding response.
Also, to observe the cross-reactivity of anti-C1s antibodies against human C1r2s2 and cyno C1r2s2 (cyno C1r2s2 His/Flag), BIACORE (registered trademark) kinetics analysis was performed.

B1: COS0098bb (antibody, V domains shown)
VH: QSVEESGGRLVTPGTPLTLTCTVSGFSLTKYTVSWVRQAPGKGLEWIGIINTGGSAYYATWAKGRFTFSKTSTTVDLQITSPTTEDTATYFCARGNGDTDYTNLWGPGTLVTVSS
VL: QVLTQTPSSVSEPVGGTVTINCQASENIYSALAWYQQKPGQPPKLLIYGASNLESGVPSRFKGSGSGTQFTLTISDLECADAATYYCQQYYFTSSTFGGGTKVEIK
notes: Anti-C1s rabbit antibody, parent of COS0098pHv1; the antibody was captured by ProA/G; also called anti-C1s antibody COS0098bb
For B1, the Kd came out at 0.0821 nM, the koff was 8.1e-05 s⁻¹ and the on-rate (kon) is 987000 M⁻¹ s⁻¹.
